Measured values as given in the supplement of paper PMC9170038.

Tested on: MS2 coat protein
Assay: apparent KD of MS2 coat protein; designed switch direction (-1 OFF switch, 1 ON switch): -1; higher = weaker reporter binding
Outline: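 Designed RNA switches sharing common flanks were transcribed on Illumina chips by stalled E. coli RNA polymerase. They were titrated with SNAP-549-labelled MS2 coat protein, from 0.7 or 1.5 nM doubling to 3 µM, in Tris-HCl pH 7.5 buffer with KCl, MgCl2, BSA, DTT, tRNA and Tween-20. Titrations ran without input, with 200 uM small-molecule ligand, or with an oligonucleotide input. The apparent KD of each design is the median over its clusters, after curve-fitting of normalised cluster fluorescence.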

[1] = Eterna round: R95, input ligand: FMN 200 uM
[2] = Eterna round: R95, input ligand: microRNA oligo, concentration not stated
[3] = Eterna round: R95, input ligand: none
[4] = input ligand: microRNA oligo, concentration not stated

Row | Sequence | apparent KD of MS2 coat protein [1] [nM] | apparent KD of MS2 coat protein [2] [nM] | apparent KD of MS2 coat protein [3] [nM] | apparent KD of MS2 coat protein (input ligand: FMN 200 uM) [nM] | apparent KD of MS2 coat protein (input ligand: none) [nM] | apparent KD of MS2 coat protein [4] [nM]
1 | AGAAAGGCCCAUGGCCGCAAGCUUUUUGCUUGUCUUACCACAUGAGGAUCACCCAUGUGACAUGGGCUCCUGAUAAU [Atveuser] (puzzle: Sensor v3, turn-off variant 2) | 14.3 | 10.4 | 13.3 | – | – | –
2 | AGGCACUAAGGAUAUACAAAGGUGCUGCGUAUGCUAGCCAGACAUGAGGAUCACCCAUGUAGAAGGUAGGAAUA [EX2 B.14] (Eterna round: R97, puzzle: Exclusion 2) | – | – | – | 16.4 | 16.8 | –
3 | UAUAUGUUAGGAUAUUAGUAGUAAAUAAAUAAAAUUAUUACUGAGAAGGGACAUGAGGAUCACCCAUGUACCUC [Salish 062 v33] (Eterna round: R97, puzzle: Exclusion 4) | – | – | – | 21.9 | 12.7 | –
4 | CCGGAUAUGCAGGAUAUCGUAUCGGAGACGAUACGAGAAGGGUAUACAUGAGGAUCACCCAUGUGCCUUACCGG [Mat - Exclusion 6 - Eli Mod - D82] (puzzle: Exclusion 6) | 23.3 | 19 | 20.7 | – | – | –
5 | UCUCGAAGGCAAGGAUAUCCUACAUUGUUCUGGCCCGGGCAUGCUACAUGAGGAUCACCCAUGUGGGAGAAGGUGCGCCACUGC [Design 28] (Eterna round: R96, puzzle: Exclusion NG 2) | – | – | – | 69.6 | 72 | 47.1
6 | GAUUAGCAAGUGAGAUCCCACAUGAGGAUCACCCAUGUGCUCGUCUUAUAAGGUACUGUGACGAAAGUCACGGUACC [Mat - Sensor, turn-off var - Eli Mod - D6] (Eterna round: R97, puzzle: Sensor, turn-off variant 1) | – | – | – | 424 | 226 | –
7 | GAAAAGGUAGGAUAUACGAAAAUAAAGGGUAGAAAAAAAACACAUGAGGAUCACCCAUGUAGAAGGACCAAAAG [salish99_ex2_r3_083] (puzzle: Exclusion 2) | 68.3 | 33.4 | 36.4 | – | – | –
8 | UAAUAAUAGUGAGGAUAUAGUUAUUAUAAUAUACUAGAAGGUACACAUGAGGAUCACCCAUGUUUUAUAAUUUGUAAUUUAAAU [4th something] (Eterna round: R96, puzzle: Exclusion NG 1) | – | – | – | – | – | 18.4
9 | CCAAGAAUAGGAUAUACACCAUGUCAGCUUAUAUACAACGCACAUGAGGAUCACCCAUGUAGAAGGGUUCUCUC [Exclusion-2-#2] (Eterna round: R97, puzzle: Exclusion 2) | – | – | – | 571 | 823 | –
10 | AGAGAAUACUCAGGAUAUCUUAAUAGAAAGAAUAGAGAAGGGAGACAUGAGGAUCACCCAUGUGAAGUCUUGAGACUACAUGGU [Prohibition 29 - Jieux - Exclusion NG 1] (Eterna round: R96, puzzle: Exclusion NG 1) | – | – | – | – | – | 218
11 | GGGUGACAUGAGGAUCACCCAUGUCAGGAUAUGGGCCCGGGCCCGAAAGGGCCCGGGCCCAGAAGGGACUGCCC [-52, -51 kcal, 22%A] (Eterna round: R97, puzzle: Exclusion 1) | – | – | – | 151 | 46.5 | –
12 | CUAGAUCUUCGGAUCUAGGACAUGAGGAUCACCCAUGUCACGAGCAGAUCUUCAUGCAAGCUUUUUGCUCGUCUUAU [Sensor v3 - Turn-off variant 1 - 37] (Eterna round: R96, puzzle: Sensor v3, turn-off variant 1) | – | – | – | 27 | 29.2 | 339
13 | UUUUUACAUGAGGAUCACCCAUGUCAGGAUAUGCUUAUAUUUUAUUAUUUUAUUUUUUGCAGAAGGGACUAUUA [My solution] (Eterna round: R96, puzzle: Exclusion 1) | – | – | – | 130 | 118 | 80.4
14 | GCCGGAUAAGUGAGGAUAUACCUAUGGAUACAUAGGUAGAAGGCACAUGAGGAUCACCCAUGUACCUCUCCGGC [JL-BMX4-4.18 Eli mod] (Eterna round: R97, puzzle: Brourd's mod of Exclusion 4) | – | – | – | 87.5 | 14.8 | –
15 | GGUGCGUAUGUGAGGAUAUGCUGGUCCUUGGCUCGGCAGAAGGCACAUGAGGAUCACCCAUGUGGUGUCGUACU [salish99_Bmod_ex4_068] (puzzle: Brourd's mod of Exclusion 4) | – | 96.8 | – | – | – | –
16 | CUGGAGUCAGGAUAUGACGCAGUCCGCCCAAGUGGCGGAAAUCAGAAGGGACUUGAGGAUCACCCAAGUAAAAG [Resorama] (Eterna round: R97, puzzle: Exclusion 4) | – | – | – | 26.8 | 29.8 | –
17 | GGGCUUCGAGUCAGGAUAUAAGGCCGCUGGCCCAUUUAGAAGGGACUUGAGGAUCACCCAAGUCACCACGGACG [Geceisbi] (Eterna round: R97, puzzle: Brourd's mod of Exclusion 4) | – | – | – | 19.3 | 16.8 | –

Row | Sequence | apparent KD of MS2 coat protein [1] [nM] | apparent KD of MS2 coat protein [2] [nM] | apparent KD of MS2 coat protein [3] [nM] | apparent KD of MS2 coat protein (input ligand: FMN 200 uM) [nM] | apparent KD of MS2 coat protein (input ligand: none) [nM] | apparent KD of MS2 coat protein [4] [nM]
18 | AAUAACAGAGGAUAUACUAUUUUAUGUAUUUAUUAUUUUGAACAUGAGGAUCACCCAUGUAGAAGGCUGAAUAA [JMF 20] (puzzle: Exclusion 2) | – | 19.9 | – | – | – | –
19 | CGAUGCACGAGUCCACAUGAGGAUCACCCAUGUCGUGUUAGCGAGGAUAUCGGAGACACAUAGUAUGAGAAGGCGCGAACCUGA [Ex NG3 #21] (Eterna round: R96, puzzle: Exclusion NG 3) | – | – | – | 16.4 | 13.4 | 11.2
20 | GCAUCCAAUGUGAGGAUAUACCUCUGGAUACAUAGGUAGAAGGCACAUGAGGAUCACCCAUGUUCCAAGGAUGC [Fiskers BMX 4 - 30] (puzzle: Brourd's mod of Exclusion 4) | 183 | 65 | 82 | – | – | –
21 | GAAGAUCUGCAGGAUAUGAGACUGAAACAGUUCUCAGAAGGGCGGACAUGAGGAUCACCCAUGUAAGACUGCAA [Eternabot (Original) Solution 4] (Eterna round: R97, puzzle: Exclusion 6) | – | – | – | 41.6 | 78.8 | –
22 | UUUUUAUUUUUUUAUUUUGACAUGAGGAUCACCCAUGUCACGAGCAGAUCUUCAUGCAAGCUUUUUGCUCGUCUUAU [Sensor v3 - Turn-off variant 1 - 40] (puzzle: Sensor v3, turn-off variant 1) | 58.3 | 141 | 98.4 | – | – | –
23 | CGUAUGUCAGGAUAUCGUGCAUACAACGAAAGUUCUAUGUGCGAGAAGGGACAUGAGGAUCACCCAUGUUUACG [Omei Ex4 A12] (Eterna round: R97, puzzle: Exclusion 4) | – | – | – | 89 | 26.1 | –
24 | AUACACUAGCGAGGAUAUUGGAAAGGAAGUGUACAAGAAGGCGCCCGUGGAAGGGUGAAACAUGAGGAUCACCCAUGUGAAUAA [PowerStrip EXNG 1.29] (Eterna round: R96, puzzle: Exclusion NG 1) | – | – | – | 151 | 66.1 | 96.2
25 | ACGCAUUGCCUUUGGUAGUGCGUAACAUGAGGAUCACCCAUGUAGGAUAUGGUAGGCAAAGCUUACCAGAAGGACAUAAUAAUU [Mat - Exclusion NG 3 - Mod of JL - D3] (Eterna round: R96, puzzle: Exclusion NG 3) | – | – | – | 73 | 32.7 | 31.4
26 | CUAAAUCAUGUAGGAUAUGCGUGGCGAAGCUAUGCAGAAGGACAUGAGGAUCACCCAUGUGCUUCCGUCUGCGUACAGACGGUA [JL ENG1 1.16] (Eterna round: R96, puzzle: Exclusion NG 1) | – | – | – | 136 | 83.3 | 59.7
27 | GGUCAGCUAGGAUAUACAUGAGGAUCACCCAUGUACUGACCCAUGCGGGAAUCCGCGUGUAGAAGGAGCAAAAG [jl-ex3-4.60 ViennaUCT mod] (Eterna round: R97, puzzle: Exclusion 3) | – | – | – | 33 | 32.5 | –
28 | UUUGUUUUGCAAGGAUAUGUUUAAUUUUAGUUUCCUUACACAUGAGGAUCACCCAUGUUAUACUUACAGAAGGUGCGUAAUUUU [Excl-NG2-LRO02] (Eterna round: R96, puzzle: Exclusion NG 2) | – | – | – | – | – | 104
29 | CUGGACCCGGCAGGAUAUAUUGUGGGCGGGCGUGGAACGACAUGAGGAUCACCCAUGUGAUUGAGGUAGAAGGGCCGAGAGGUC [Excl-NG2-LRO20] (Eterna round: R96, puzzle: Exclusion NG 2) | – | – | – | 38.5 | 47.7 | 30.6
30 | CCUCUACAUGAGGAUCACCCAUGUGAGGAUAUCCUGCGAGGAUCAAAAGAUCCUCGUGGGAGAAGGCAUAUGUA [Omei Ex1 A2] (Eterna round: R97, puzzle: Exclusion 1) | – | – | – | 30.6 | 24.8 | –
31 | UUUUACCGAGGAUAUACAUUUUUUUUAUUAUCCUCAUUAUUACAUGAGGAUCACCCAUGUAGAAGGCGGAUUUU [My Design] (puzzle: Exclusion 2) | – | 56.9 | – | – | – | –
32 | GGCCUCGCGGUCAGGAUAUAUUGCUGUAAUCAGUGGUAGAAGGGACAUGAGGAUCACCCAUGUACCUAGGACAU [BmEX4 C.20] (Eterna round: R97, puzzle: Brourd's mod of Exclusion 4) | – | – | – | 33.4 | 18.9 | –
33 | UGUUGUCGCGCAGGAUAUGAGGAUCACCCAUAUAGAGGAUAUGAAAAGAAGGCUCUGAGGAUCACCCAGAAGGGCGGGACAACU [pwkr exNG2 2xF5 2xFMN.23] (Eterna round: R96, puzzle: Exclusion NG 2) | – | – | – | 1390 | 222 | 141
